Assay results: article PMC11210195 (Frontiers in Immunology, 2024)
One block for each binder: values may come before it.

How the values were obtained:
cytokine-Fc Fusion Y436A [1] = target: cytokine-Fc Fusion Y436A (human); assay: SPR; cytokine-Fc Fusion constructs captured via anti-PGLALA F(ab')2 fragment (35-40 RU); PRYSPRY injected, two-fold series; 25°C, HBS-EP+ pH 7.4; 1:1 fit; conditions: both partners purified
[2] = target: the molecule itself; assay: SEC-MALS; TRIM21-CC-PS alone, 1 mg/mL, 50 µg injected, Superdex200 Increase 10/300 GL, PBS pH 7.4
cytokine-Fc Fusion Y436A [3] = target: cytokine-Fc Fusion Y436A (human); assay: SPR; cytokine-Fc Fusion constructs captured via anti-PGLALA F(ab')2 fragment at low density; TRIM21-CC-PS injected; 25°C, HBS-EP+; apparent (avidity) constants; conditions: both partners purified

fold change of off rate against WT (cytokine-Fc Fusion Y436A [1]): 23 fold
fold change of on rate against WT (cytokine-Fc Fusion Y436A [1]): 8 fold
fold decrease of affinity against mAb1 Fc WT (cytokine-Fc Fusion Y436A [1]): 180 fold
t1/2 of dissociation (cytokine-Fc Fusion Y436A [1]): 0.3 s
B1: TRIM21 PRYSPRY domain (domain or fragment, human, UniProt P19474-1 277-475, looked up)
chain: GLKKMLRTCAVHITLDPDTANPWLILSEDRRQVRLGDTQQSIPGNEERFDSYPMVLGAQHFHSGKHYWEVDVTGKEAWDLGVCRDSVRRKGHFLLSSKSGFWTIWLWNKQKYEAGTYPQTPLHLQVPPCQVGIFLDYEAGMVSFYNITDHGSLIYSFSECAFTGPLRPFFSPGFNDGGKNTAPLTLCPLNIGSQGSTDY
modifications: biotinylated where it was captured via monovalent streptavidin
notes: human TRIM21 (Ro52, RNF81), PRYSPRY domain, amino acids 277 to 475 of isoform 1; also called PS; TRIM21 PRYSPRY variant; source: E. coli BL21 DE3, purified (Ni-NTA, Superdex S-200 gel filtration) by Proteros Biostructures; not shown: His-Avi-Tag (via a (4GS)1 linker), C-terminal, kept

avidity enhancement (K_(D,AFFINITY)/K_(D,AVIDITY)) (cytokine-Fc Fusion Y436A [3]): 14 fold
fold weaker against the WT avidity (cytokine-Fc Fusion Y436A [3]): 766 fold
B2: TRIM21-coiled-coil-PRYSPRY (TRIM21-CC-PS) (domain or fragment, human, UniProt P19474-1 128-475, looked up)
chain: LEEAAQEYQEKLQVALGELRRKQELAEKLEVEIAIKRADWKKTVETQKSRIHAEFVQQKNFLVEEEQRQLQELEKDEREQLRILGEKEAKLAQQSQALQELISELDRRCHSSALELLQEVIIVLERSESWNLKDLDITSPELRSVCHVPGLKKMLRTCAVHITLDPDTANPWLILSEDRRQVRLGDTQQSIPGNEERFDSYPMVLGAQHFHSGKHYWEVDVTGKEAWDLGVCRDSVRRKGHFLLSSKSGFWTIWLWNKQKYEAGTYPQTPLHLQVPPCQVGIFLDYEAGMVSFYNITDHGSLIYSFSECAFTGPLRPFFSPGFNDGGKNTAPLTLCPLNIGSQGSTDY
modifications: biotinylated where it was captured via monovalent streptavidin
notes: human TRIM21 (Ro52, RNF81), coiled-coil and PRYSPRY domains, amino acids 128 to 475 of isoform 1; also called PRYSPRY-coiled-coil variant; source: E. coli BL21 DE3, purified (Ni-NTA, Superdex S-200 gel filtration) by Proteros Biostructures; not shown: His-Avi-Tag (via a (4GS)1 linker), C-terminal, kept
stoichiometry N [2]: 2
